Test results published in patent publication US20260217797A1 (Takeda / Millennium, published 2026).
Substitutions are numbered along the chain they refer to.

T1: MERS-CoV [change] (MERS-CoV, UniProt K9N5Q8 18-725)
T1 sequence: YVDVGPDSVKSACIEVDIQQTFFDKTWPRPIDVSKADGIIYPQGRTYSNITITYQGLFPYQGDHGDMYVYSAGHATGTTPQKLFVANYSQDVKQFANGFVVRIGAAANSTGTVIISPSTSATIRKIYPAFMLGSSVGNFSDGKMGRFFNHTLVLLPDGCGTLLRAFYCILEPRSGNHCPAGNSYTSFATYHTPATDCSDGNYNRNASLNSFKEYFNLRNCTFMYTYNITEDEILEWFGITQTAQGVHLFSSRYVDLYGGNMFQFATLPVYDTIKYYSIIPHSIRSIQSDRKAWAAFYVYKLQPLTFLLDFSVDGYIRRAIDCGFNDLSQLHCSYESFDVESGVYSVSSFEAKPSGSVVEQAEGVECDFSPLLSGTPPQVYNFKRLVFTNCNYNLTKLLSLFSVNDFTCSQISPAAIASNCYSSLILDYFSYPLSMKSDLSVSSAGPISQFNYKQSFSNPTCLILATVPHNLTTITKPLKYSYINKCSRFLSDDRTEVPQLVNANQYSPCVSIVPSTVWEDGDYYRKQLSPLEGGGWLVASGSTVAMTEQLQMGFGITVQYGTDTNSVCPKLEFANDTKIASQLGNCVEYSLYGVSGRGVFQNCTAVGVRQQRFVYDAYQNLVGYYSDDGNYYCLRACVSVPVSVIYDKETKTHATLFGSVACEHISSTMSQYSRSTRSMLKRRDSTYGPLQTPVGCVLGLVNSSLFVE

B1: A-7 (antibody, V domains shown)
VH: EVQLVESGAEVRKPGASVKVSCKASGYTFTFYYIHWVRQAPGQGLEWMGWISPISGATNYAQTFQGRVTMTRDTSITTAYMELSSLTSDDTAVYYCAREKYYDSSGSSDYWGQGTLVTVSS
VL: QPVLTQPPSVSAAPGQNVTIFCSGSSSNIGNNYVSWYQQLPGPAPKLLIYENNKRPSGIPDRFSGSKSGTSATLGITGLQTGDEADYYCGTWESSLSAPRVFGSGTKLTVL
B2: A-4 (antibody, V domains shown)
VH: EVQLVESGGGLIQPGGSLTLSCAASGFTVSSNYMNWVRQAPGKGLEWVSVIYSGGSTYYADSVKGRFTISRDNSKNTLYLQMNSLRAEDTAVYYCAREVYSYFDYWGQGTLVTVSS
VL: DIQLTQSPSFLSASVGDRVTITCRASQGISSYLAWYQQKPGKAPKLLIYAASTLQSGVPSRFSGSGSGTEFTLTISRLQPEDLATYYCQQLNSYPPHTFGQGAKLEIK
B3: A-5 (antibody, V domains shown)
VH: QVQLVESGGGLIQPGESLRLSCAASEFIVSRNYMSWVRQAPGKGLEWVSVIYSGGNTYYADSVKGRFTISRDNSKNTLYLQMNSLRAEDTAVYYCARDLRGPGCFDFWGQGTTVTVSS
VL: DIQVTQSPSSLSASVGDRVTITCQASQDISNFLNWYQQKPGKAPKLLIYDASNLETGVPSRFSASGSGTEFTFTISSLQPEDIATYYCQQYDNLRVTFGGGTKLEIK
B4: A-15 (antibody, V domains shown)
VH: QVQLVQSGAEVKKPGASVKVSCKASGYTSSSYYMHWVRQAPGQGPEWMGIINPGGTSTSYAQKFQGRVTMTRDTSTSTVYMELSSLRSEDTAVYYCAIGYCSTTSCRWGDAFDIWGQGTMVTVSS
VL: DIQVTQSPSSLSASVGDRVTITCRASQSISSYLNWYQQKPEKAPNLLIYAASSLQSGVPSRFSGSGSGTDFTLTISSLQPEDFATYYCQQSSTTPPTFGQGTKVEIK
B5: A-8 (antibody, V domains shown)
VH: EVQLLESGGGLVQPGGSLRLSCAASGFTFSSYAMSWVRQAPGKGLEWVSAISGSGNSTSYADSVKGRFTLSRDNSKNTLYLQMNSLRAEDTAIYYCAKGLGTRSFNWGAFDYWGQGTLVTVSS
VL: DIRVTQSPSSLSASVGDRVTITCRASQGISYSLAWYQQKPGKAPKLLLYAASNLESGVPSRFSGSGSGTDYTLTVSSLQPEDFATYYCQQYYSTPWTFGQGTKVEIK
B6: A-12 (antibody, V domains shown)
VH: EVQLLESGGGLVQPGGSLRLSCAVSGLTVSSNYMSWVRQAPGKGLEWVSLIYSGGSTYYADSVKGRFTISRDNSKNTLYLQMNSLRAEDTAVYYCARGELGIPYGMDVWGQGTTVTVSS
VL: QSVLTQPPSVSAAPGQKVTISCSGGSSNVGDNFVSWYQQLPGTAPKLLIYDNNRRPSGIPDRFSGSKSGTSATLGITGLQTGDEADYYCGTWDSSLSAGVFGGGTKVTVL
B7: A-3 (antibody, V domains shown)
VH: EVQLLESGPGLVKPSETLSLTCTVSGGSINSRSYYWGWIRQPPGKGLEWIGSIYYSGSTYYNPSLKSRVTISVDTSKNQFSLKLSSVIAADTAVYFCARLEQWELPGGWFDPWGQGTLVTVSS
VL: NFMLTQPHSVSESPGKTVTISCTRSSGSIASNYVQWYQQRPGSAPTTVIYEDNQRPSGVPDRFSGSIDISSNSASLTISGLKTEDEADYSCQSSDSSNVVFGGGTKLTVL
B8: A-14 (antibody, V domains shown)
VH: EVQLVESGGGVVQPGRSLRLSCAASGFTFSTYGMHWVRQAPGKGLEWVAVIWYDGSNKYYADSVKGRFTISRDNSKNTLYLQMNSLRAEDTAVYYCARSVDGDYLEYFQHWGQGTLVTVSS
VL: QPVLTQPRSVSGSPGQSVTISCTGTSSDVGGYNYVSWYQQHPGKAPKLMIYDVSKRPSGVPDRFSGSKSGNTASLTISGLQAEDEADYYCCSYAGGYTNYVFGTGTKLTVL
B9: A-20 (antibody, V domains shown)
VH: QVQLVESGGGVVQPGRSLRLSCAASGFTFSNFAMHWVRQAPGKGLEWVAVILYDGINKYYADSVKGRFTISRGNSKNTLSLQMNSLRAEDTAVYYCARAQNYYDRSGTLQLDAFDIWGQGTLVTVSS
VL: AIQMTQSPSSLSASVGDRVTITCRASQGIRNDLGWYQQKPGKAPKLLIYAASSLQSGVPSRFSGSGSGTDFTLTISSLQPEDFATYYCLQDYNYPLTFGGGTKVEIK
B10: A-20.2 (antibody, V domains shown)
VH: B9 VH with E6Q, S30D, L52E, S106Y
VL: B9 VL with A50D
B11: A-20.3 (antibody, V domains shown)
VH: B9 VH with E6Q, S30D, K58D, S106H
VL: B9 VL with Q27D, A50E, D91N
B12: A-21 (antibody, V domains shown)
VH: EVQLVESGGGLVQPGGSLRLSCAASGFTFSRYWMHWVRQAPGKGLVWVSRINSDGSSTTYADSVKGRFTISRDNAKNTLYLQMNSLRAEDTAVYYCARELYYYDSRGAEEGEGWFDPWGQGTLVTVSS
VL: QSVLTQPPSVSGAPGQRVTISCTGISSNIGAGYDVHWYQQLPGTAPKLLIYGNSNRPSGVPDRFSASKSGTSAPLAITGLQAEDEADYYCQSSDRSLSGSVFGTGTKVTVL
B13: A-23.3 (antibody, V domains shown)
VH: EVQLVESGGGLVQPGRSLRLSCAASGFTFDDYAMHWVRQAPGKGLEWVSGTSWNSGTIGYADSVKGRFIISRDNAKNSLYLQMNSLRGEDMALYYCVKDRKREDPSLGGMDVWGQGTTVTVSS
VL: SYVLTQPPSVSVAPGQTARITCGGNNIGSKSVHWYQQKPGQAPVLVVYDDTDRPSGIPERFSGSNSGNTATLTISRVEAGDEADYYCQVWDSSSDDYVFGTGTKVTVL
B14: A-20.1 (antibody, V domains shown)
VH: B9 VH
VL: B9 VL with R24V, A50E, Q55E
B15: A-21.1 (antibody, V domains shown)
VH: B12 VH with S30R, A108F
VL: B12 VL
B16: A-17 (antibody, V domains shown)
VH: EVQLQESGPGLVKPSETLSLTCTVSGGSISSYYWSWIRQPPGKGLEWIGYIYYSGSTNYNPSLKSRVTISVGTSKNQFSLKLSSVTAADTAVYYCAKSASDEPPPSTAAAGSHYYYYGMDVWGQGTTVTVSS
VL: EIVMTQSPLSLPVTPGEPASISCRSSQSLLHSNGYNYLDWYLQKPGQSPHVLIYLGSNRASGVPDRFSGSGSGTDFTLKISRVEAEDVGVYYCMQALQTPNTFGQGTKLEIK

biological target: SARS-CoV-2 S Trimer (SARS-CoV-2, UniProt P0DTC2 16-1213); assay: Octet BLI, IgG, avid

Binder | Kd
B1 | 0.804 nM
B2 | 1.97 nM
B3 | 2.41 nM
B4 | 1.62 nM
B5 | 1.53 nM
B6 | 1.11 nM
B7 | 0.945 nM
B8 | 2.09 nM

biological target: T2, SARS-CoV-2 Spike S1-His (SARS-CoV-2, UniProt P0DTC2 16-685); assay: Octet BLI, IgG, monovalent

Binder | Kd
B9 | 3.95 nM
B10 | 0.293 nM
B11 | 0.366 nM
B12 | 0.529 nM

biological target: T3, SARS-CoV1 Spike [change] (SARS-CoV-1, UniProt P59594 14-667); assay: Octet BLI, IgG, monovalent

Binder | binding result | Kd
B13 | no binding | –
B9 | – | 22 nM
B14 | – | 5.29 nM
B10 | – | 1.74 nM
B11 | – | 3.52 nM
B12 | – | 9.03 nM
B15 | – | 6.57 nM

biological target: T4, SARS-CoV-2 wild type spike protein (on reporter virus particles) (SARS-CoV-2, UniProt P0DTC2 14-1273); assay: cell-based or functional assay

Binder | PsV Neut Assay IC50
B1 | 0.0922 nM
B16 | 0.66 nM
B2 | 2.26 nM
B3 | 1.1 nM
B4 | 1.44 nM
B5 | 0.846 nM
B6 | 0.404 nM
B7 | 0.419 nM
B8 | 1.61 nM

biological target: T4, SARS-CoV-2 wild type spike protein (on …); assay: cell-based or functional assay; remark: another data set of the same source

Binder | WT PsV IC50
B9 | 2.45 nM
B10 | 1.06 nM
B11 | 1.51 nM
B12 | 2.78 nM
B15 | 1.75 nM

biological target: T1, MERS-CoV [change]; assay: Octet BLI, IgG, monovalent

Binder | binding result
B1 | no binding
B16 | no binding
B2 | no binding
B3 | no binding
B4 | no binding
B5 | no binding
B6 | no binding
B7 | no binding
B8 | no binding

biological target: T2, SARS-CoV-2 Spike S1-His; assay: Octet BLI, IgG, monovalent; remark: another data set of the same source

Binder | Kd
B1 | 2.71 nM
B16 | 1.58 nM
B3 | 37.3 nM
B4 | 7.82 nM
B5 | 0.477 nM
B6 | 2.57 nM
B7 | 37.4 nM
B8 | 26.6 nM

biological target: T3, SARS-CoV1 Spike [change]; assay: Octet BLI, IgG, monovalent; remark: another data set of the same source

Binder | binding result
B1 | no binding
B16 | no binding
B2 | no binding
B3 | no binding
B4 | no binding
B5 | no binding
B6 | no binding
B7 | no binding
B8 | no binding
